Assay results from patent US20210371524A1 (VOR BIOPHARMA, published 2021).
Where a chain is given by its changes, count along the chain named.

Assays:
[1] = biological target: human CD45 on human cells (PBMC, CD34+CD90+ bone marrow HSCs, cells expressing CD45) (human), P08575; test: cell-based or functional assay
cynomolgus CD45 RABC [2] = biological target: T1, cynomolgus CD45 RABC (cynomolgus, UniProt A0A2K5VQ76 26-1301); test: Octet (BLI), monovalent binding; KD on cyno against KD on human CD45 RABC
T1 construct: also called cyno CD45RABC; cyno RABC
T1 sequence: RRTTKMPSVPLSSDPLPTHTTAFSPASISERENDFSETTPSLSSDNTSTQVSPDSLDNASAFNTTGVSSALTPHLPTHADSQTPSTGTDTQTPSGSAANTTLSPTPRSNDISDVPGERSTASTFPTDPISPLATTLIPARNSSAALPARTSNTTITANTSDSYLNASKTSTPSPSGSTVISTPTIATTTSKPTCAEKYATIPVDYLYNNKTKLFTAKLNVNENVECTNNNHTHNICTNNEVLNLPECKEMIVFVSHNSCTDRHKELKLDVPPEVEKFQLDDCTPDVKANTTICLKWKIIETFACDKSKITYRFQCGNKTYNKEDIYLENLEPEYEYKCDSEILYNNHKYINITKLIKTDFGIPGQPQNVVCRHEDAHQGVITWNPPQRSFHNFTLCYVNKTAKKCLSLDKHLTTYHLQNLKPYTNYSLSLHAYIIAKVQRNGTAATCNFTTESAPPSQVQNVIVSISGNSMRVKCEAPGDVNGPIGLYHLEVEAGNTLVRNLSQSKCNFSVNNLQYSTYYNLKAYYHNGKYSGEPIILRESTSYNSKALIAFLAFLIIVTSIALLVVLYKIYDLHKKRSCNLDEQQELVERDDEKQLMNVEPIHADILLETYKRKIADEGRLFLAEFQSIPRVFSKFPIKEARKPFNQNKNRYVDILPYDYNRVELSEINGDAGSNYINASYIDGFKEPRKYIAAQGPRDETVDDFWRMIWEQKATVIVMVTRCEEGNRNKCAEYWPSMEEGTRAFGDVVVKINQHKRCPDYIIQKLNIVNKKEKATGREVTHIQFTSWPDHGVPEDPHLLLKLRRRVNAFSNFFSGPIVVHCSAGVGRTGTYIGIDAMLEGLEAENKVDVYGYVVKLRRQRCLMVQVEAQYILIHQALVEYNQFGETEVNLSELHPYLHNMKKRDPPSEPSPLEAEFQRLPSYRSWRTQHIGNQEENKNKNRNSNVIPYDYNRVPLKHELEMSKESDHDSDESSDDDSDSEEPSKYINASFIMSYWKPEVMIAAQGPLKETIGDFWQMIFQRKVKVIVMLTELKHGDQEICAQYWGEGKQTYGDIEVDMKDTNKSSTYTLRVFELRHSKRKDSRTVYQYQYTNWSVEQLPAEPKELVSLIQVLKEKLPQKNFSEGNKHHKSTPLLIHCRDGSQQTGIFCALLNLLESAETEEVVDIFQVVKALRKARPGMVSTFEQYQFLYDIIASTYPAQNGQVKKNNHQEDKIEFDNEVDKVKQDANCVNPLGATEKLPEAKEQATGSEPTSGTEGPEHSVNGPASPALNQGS

Rhesus CD45RABC [3] = biological target: T2, Rhesus CD45RABC (rhesus, UniProt A0A1D5R142 26-1310); test: Octet (BLI), monovalent binding; KD on rhesus against KD on human CD45 RABC
T2 sequence: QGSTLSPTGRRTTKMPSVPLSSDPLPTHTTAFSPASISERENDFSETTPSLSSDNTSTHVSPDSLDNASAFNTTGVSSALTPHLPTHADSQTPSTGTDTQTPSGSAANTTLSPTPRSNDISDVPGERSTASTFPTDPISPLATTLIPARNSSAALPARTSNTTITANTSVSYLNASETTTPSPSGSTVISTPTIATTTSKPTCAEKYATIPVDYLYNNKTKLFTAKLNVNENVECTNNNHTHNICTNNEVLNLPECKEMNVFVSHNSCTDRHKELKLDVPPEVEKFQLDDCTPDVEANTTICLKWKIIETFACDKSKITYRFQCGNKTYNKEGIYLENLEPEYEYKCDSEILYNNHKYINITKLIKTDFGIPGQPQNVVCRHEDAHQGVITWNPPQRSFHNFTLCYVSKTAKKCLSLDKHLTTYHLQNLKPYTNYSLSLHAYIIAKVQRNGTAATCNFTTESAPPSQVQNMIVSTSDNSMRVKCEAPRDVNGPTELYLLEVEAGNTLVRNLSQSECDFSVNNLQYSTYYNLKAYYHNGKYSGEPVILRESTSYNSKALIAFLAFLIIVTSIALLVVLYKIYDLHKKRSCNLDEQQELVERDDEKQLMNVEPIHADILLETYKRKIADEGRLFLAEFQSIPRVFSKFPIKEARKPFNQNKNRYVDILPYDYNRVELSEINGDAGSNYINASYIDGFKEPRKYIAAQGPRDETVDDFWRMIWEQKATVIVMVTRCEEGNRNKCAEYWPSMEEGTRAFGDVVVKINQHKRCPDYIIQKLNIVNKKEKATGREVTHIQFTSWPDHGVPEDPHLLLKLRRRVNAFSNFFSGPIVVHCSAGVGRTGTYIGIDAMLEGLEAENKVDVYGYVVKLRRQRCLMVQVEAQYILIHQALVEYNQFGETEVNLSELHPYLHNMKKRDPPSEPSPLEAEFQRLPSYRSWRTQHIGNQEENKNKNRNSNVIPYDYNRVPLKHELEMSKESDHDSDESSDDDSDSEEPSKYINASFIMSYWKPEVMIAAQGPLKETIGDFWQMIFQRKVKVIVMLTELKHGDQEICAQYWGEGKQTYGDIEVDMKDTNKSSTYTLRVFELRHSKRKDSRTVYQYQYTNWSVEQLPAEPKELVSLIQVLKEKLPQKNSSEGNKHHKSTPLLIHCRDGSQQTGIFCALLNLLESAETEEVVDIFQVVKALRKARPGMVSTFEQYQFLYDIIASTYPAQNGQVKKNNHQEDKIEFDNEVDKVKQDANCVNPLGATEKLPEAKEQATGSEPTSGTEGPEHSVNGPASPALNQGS

Rhesus CD45RABC [4] = biological target: T2, Rhesus CD45RABC; test: Octet (BLI), monovalent binding
[5] = biological target: T3, Human CD45RABC Antigen (Fragment of Human CD45RABC Isoform) (human, UniProt P08575 26-577); test: Octet (BLI), monovalent binding
T3 sequence: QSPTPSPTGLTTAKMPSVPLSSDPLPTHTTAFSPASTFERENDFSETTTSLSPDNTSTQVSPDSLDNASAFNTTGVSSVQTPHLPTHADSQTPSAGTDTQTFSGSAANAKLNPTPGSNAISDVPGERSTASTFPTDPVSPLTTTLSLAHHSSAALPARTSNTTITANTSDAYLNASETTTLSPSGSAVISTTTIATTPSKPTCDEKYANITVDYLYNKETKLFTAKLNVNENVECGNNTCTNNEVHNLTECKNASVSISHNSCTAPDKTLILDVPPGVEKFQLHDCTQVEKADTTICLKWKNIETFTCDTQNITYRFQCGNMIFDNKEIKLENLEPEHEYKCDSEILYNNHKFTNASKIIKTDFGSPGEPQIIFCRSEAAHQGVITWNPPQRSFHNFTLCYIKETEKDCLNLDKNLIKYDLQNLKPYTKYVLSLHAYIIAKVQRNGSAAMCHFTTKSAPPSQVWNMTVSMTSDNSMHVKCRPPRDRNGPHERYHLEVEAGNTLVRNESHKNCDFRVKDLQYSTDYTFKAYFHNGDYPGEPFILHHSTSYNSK

cynomolgus CD45 RABC [6] = biological target: T1, cynomolgus CD45 RABC; test: Octet (BLI), monovalent binding

B1: CD45-AM (antibody AbB-amatoxin), Example 4 (antibody, V domains shown)
VH: EVQLVESGGDLVQPGRSLKLSCIASGFTFTNFWMTWIRQVSGKGLEWVASISSSGGSIYYPDSVKDRFTISRDNAKNTLYLQMNSLRSEDTATYYCVKLHYYSGGGDAWGQGTSVTVSS
VL: DIQMTQSPSFLSASVGDRVTINCKASQNINKYLDWYQQKHGEAPKLLIHYTNNLHTGIPSRFSGSGSGTDYTLTISSLQPEDVATYFCLQHSSRWTFGGGTKLELK
modifications: here or on the partner: amanitin conjugated (interchain), drug to antibody ratio (DAR) 4
in vitro killing of human PBMCs, 4 days, Celltiter Glo [1]: 614 pM
in vitro killing of primary human CD34+CD90+ HSCs, 5 days, flow cytometry counts [1]: 68 pM

B2: AbC chimera (chimeric Antibody C, human IgG1) (antibody, V domains shown)
VH: B1 VH with I23V, T30N, F32Y, S41P, Y80F, V97A, K98R, H100Y
VL: B1 VL with N22I, N28D, H40L, H49Y, Y50N, S92I
notes: also called chimeric AbC
Fold cyno to Hu (cynomolgus CD45 RABC [2]): 8 fold
Fold Rhesus to Hu (Rhesus CD45RABC [3]): 8 fold
Kd (Rhesus CD45RABC [4]): 63.5 nM
Kd [5]: 7.54 nM
Kd (cynomolgus CD45 RABC [6]): 62.2 nM

B3: AbB chimera (chimeric Antibody B, human IgG1) (antibody, V domains shown)
VH: B1 VH
VL: B1 VL
notes: also called chimeric AbB
Fold cyno to Hu (cynomolgus CD45 RABC [2]): 5 fold
Fold Rhesus to Hu (Rhesus CD45RABC [3]): 6 fold
Kd (Rhesus CD45RABC [4]): 15.8 nM
Kd [5]: 2.84 nM
Kd (cynomolgus CD45 RABC [6]): 14.5 nM

B4: CD45-AM (chimeric AbA as IgG1 conjugated to amatoxin), Example 2 (antibody, V domains shown)
VH: EVQLVESGGDRVQPGRSLTLSCVTSGFTFNNYWMTWIRQVPGKGLEWVASISSSGGSIYYPDSVKGRFTISRDNAKNTLYLQMNSLRSEDTATYYCARDERWAGAMDAWGQGTSVTVSS
VL: DIQMTQSPPVLSASVGDRVTLSCKASQNINKNLDWYQQKHGEAPKLLIYETNNLQTGIPSRFSGSGSGTDYTLTISSLQPEDVATYYCYQHNSRFTFGSGTKLEIK
modifications: here or on the partner: amatoxin (AM) payload conjugated to the antibody; site and drug to antibody ratio not stated in Example 2
in vitro killing of PBMC immune cells (IC50) [1]: 0.055 nM
in vitro killing of primary human bone marrow CD34+CD90+ HSCs (IC50) [1]: 0.067 nM

B5: AbA chimera (chimeric Antibody A, human IgG1) (antibody, V domains shown)
VH: B4 VH
VL: B4 VL
notes: also called chimeric AbA
Fold cyno to Hu (cynomolgus CD45 RABC [2]): 4 fold
Fold Rhesus to Hu (Rhesus CD45RABC [3]): 5 fold
Kd (Rhesus CD45RABC [4]): 12.3 nM
Kd [5]: 2.34 nM
Kd (cynomolgus CD45 RABC [6]): 9.33 nM
